One molecule from publication PMC7782096, “BAP1 suppresses prostate cancer progression by deubiquitinating and stabilizing PTEN” (Molecular Oncology, 2020) can be followed below.

For the test, the target named is T1, His-tagged BAP1 protein (UniProt Q92560 1-729).
T1 construct: BAP1, full length, inserted into pET-28a; also called His-BAP1; source: E. coli expressing system, purified
T1 sequence (looked up): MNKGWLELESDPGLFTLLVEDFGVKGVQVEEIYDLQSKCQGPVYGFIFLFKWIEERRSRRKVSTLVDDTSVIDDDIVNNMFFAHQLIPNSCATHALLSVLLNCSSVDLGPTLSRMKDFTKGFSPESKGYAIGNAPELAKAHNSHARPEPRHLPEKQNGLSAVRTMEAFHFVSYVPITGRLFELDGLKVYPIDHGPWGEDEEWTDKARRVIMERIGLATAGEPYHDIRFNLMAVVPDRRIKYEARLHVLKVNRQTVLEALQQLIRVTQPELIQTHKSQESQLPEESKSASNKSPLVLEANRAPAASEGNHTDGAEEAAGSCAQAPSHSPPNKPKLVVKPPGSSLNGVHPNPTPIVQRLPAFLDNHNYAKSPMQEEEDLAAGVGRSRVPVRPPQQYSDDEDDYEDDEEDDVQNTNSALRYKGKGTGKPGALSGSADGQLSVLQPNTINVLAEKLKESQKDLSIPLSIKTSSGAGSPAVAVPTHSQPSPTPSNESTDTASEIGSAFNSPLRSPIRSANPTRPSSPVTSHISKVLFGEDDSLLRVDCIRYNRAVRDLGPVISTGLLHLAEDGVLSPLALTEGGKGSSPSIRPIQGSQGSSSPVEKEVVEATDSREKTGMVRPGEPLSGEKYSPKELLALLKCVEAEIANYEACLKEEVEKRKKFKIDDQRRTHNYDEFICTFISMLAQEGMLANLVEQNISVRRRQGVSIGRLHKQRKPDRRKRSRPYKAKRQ
Briefly: pull-down; purified GST-PTEN on GST beads incubated with recombinant His-BAP1 purified from E. coli, 4 °C; western blotting. As to conditions: both partners purified.

B1: GST-tagged PTEN recombinant protein (natural protein)
chain: not shown
notes: PTEN; also called GST-PTEN; source: bacterially expressed (E. coli), purified
Take B1: the binding result is recorded as “binds”.
